Experimental data from patent US9618524B2, “Method, composition, isolation and identification of a plaque particle and related biomarker” (Plaxgen Inc., priority 2012, dated 2017).

What was measured:
Assay in all cases: Mass spectroscopy proteomics, semi-quantitative binding affinity of serum proteins (plaqueproteome, Table 2)
Details in all cases: higher number = stronger affinity
[1] = tested on: Tau plaque particles; design: species or system human
In short: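 Serum or plasma proteins captured on Thioflavin S-labelled Tau plaque particles (Tau-74, Tau-275 oligomers preformed in PBS at 37° C for 2 h; 1 h co-incubation at 37° C) were isolated by FACS sorting, then tryptically digested and identified by MS/MS (Sequest, human UniProt, strict trypsin).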

[2] = molecular target: T1, Abeta-42 plaque particles (Homo sapiens, UniProt P05067)
T1 construct: Abeta 1-42
In short: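 AD patient serum or plasma (50% in PBS) was incubated with Abeta-42 aggregates (30 μg) for 1 h at 37 °C, then stained with Thioflavin S for 30 min. Labeled particles were FACS-sorted, trypsin/Lys-C digested overnight and analyzed by MS/MS. Sequest searched human UniProt; Scaffold/Protein Prophet validated the identifications.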

[3] = molecular target: T2, alpha-synuclein plaque particles (Homo sapiens, UniProt P37840)
T2 construct: 140 amino acids polypeptide
In short: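 AD-subject plasma or serum (800 μL of 50%) mixed with 30 μg preformed alpha-synuclein aggregates for 1 h at 37 °C; Thioflavin S-positive particles isolated by flow sorting. After reduction, acrylamide alkylation and overnight tryptic digestion, serum proteins identified by MS/MS with Sequest and Scaffold.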

[4] = tested on: Low density cholesterol (Chl small) plaque particles; design: species or system human
In short: (§1)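 Serum or plasma from atherosclerotic subjects, as 50% serum, was incubated with 30 μg cholesterol aggregates for 1 h at 37 °C. High- and low-density particles were then flow-sorted, trypsin-digested and analysed by MS/MS. Proteins were identified by Sequest search against human UniProt and validated with Protein Prophet.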

[5] = tested on: High Density cholesterol (Chl Large) plaque particles; design: species or system human
In short: as §1

B1: Inter-alpha-trypsin inhibitor heavy chain H4 (protein)
chain: EKNGIDIYSLTVDSRVSSRFAHTVVTSRVVNRANTVQEATFQMELPKKAFITNFSMIIDGMTYPGIIKEKAEAQAQYSAAVAKGKSAGLVKATGRNMEQFQVSVSVAPNAKITFELVYEELLKRRLGVYELLLKVRPQQLVKHLQMDIHIFEPQGISFLETESTFMTNQLVDALTTWQNKTKAHIRFKPTLSQQQKSPEQQETVLDGNLIIRYDVDRAISGGSIQIENGYFVHYFAPEGLTTMPKNVVFVIDKSGSMSGRKIQQTREALIKILDDLSPRDQFNLIVFSTEATQWRPSLVPASAENVNKARSFAAGIQALGGTNINDAMLMAVQLLDSSNQEERLPEGSVSLIILLTDGDPTVGETNPRSIQNNVREAVSGRYSLFCLGFGFDVSYAFLEKLALDNGGLARRIHEDSDSALQLQDFYQEVANPLLTAVTFEYPSNAVEEVTQNNFRLLFKGSEMVVAGKLQDRGPDVLTATVSGKLPTQNITFQTESSVAEQEAEFQSPKYIFHNFMERLWAYLTIQQLLEQTVSASDADQQALRNQALNLSLAYSFVTPLTSMVVTKPDDQEQSQVAEKPMEGESRNRNVHSGSTFFKYYLQGAKIPKPEASFSPRRGWNRQAGAAGSRMNFRPGVLSSRQLGLPGPPDVPDHAAYHPFRRLAILPASAPPATSNPDPAVSRVMNMKIEETTMTTQTPAPIQAPSAILPLPGQSVERLCVDPRHRQGPVNLLSDPEQGVEVTGQYEREKAGFSWIEVTFKNPLVWVHASPEHVVVTRNRRSSAYKWKETLFSVMPGLKMTMDKTGLLLLSDPDKVTIGLLFWDGRGEGLRLLLRDTDRFSSHVGGTLGQFYQEVLWGSPAASDDGRRTLRVQGNDHSATRERRLDYQEGPPGVEISCWSVEL
- Semi-quantitative analysis of proteins binding to different plaque particles: Tau [1]: 15
- Semi-quantitative analysis of proteins binding to different plaque particles: Abeta-42 [2]: 2
- Semi-quantitative analysis of proteins binding to different plaque particles: Synuclein [3]: 12
- Semi-quantitative analysis of proteins binding to different plaque particles: Chl small [4]: 13
- Semi-quantitative analysis of proteins binding to different plaque particles: Chl Large [5]: 20

B2: Inter-alpha-trypsin inhibitor heavy chain H2 (protein)
chain: SLPGESEEMMEEVDQVTLYSYKVQSTITSRMATTMIQSKVVNNSPQPQNVVFDVQIPKGAFISNFSMTVDGKTFRSSIKEKTVGRALYAQARAKGKTAGLVRSSALDMENFRTEVNVLPGAKVQFELHYQEVKWRKLGSYEHRIYLQPGRLAKHLEVDVWVIEPQGLRFLHVPDTFEGHFDGVPVISKGQQKAHVSFKPTVAQQRICPNCRETAVDGELVVLYDVKREEKAGELEVFNGYFVHFFAPDNLDPIPKNILFVIDVSGSMWGVKMKQTVEAMKTILDDLRAEDHFSVIDFNQNIRTWRNDLISATKTQVADAKRYIEKIQPSGGTNINEALLRAIFILNEANNLGLLDPNSVSLIILVSDGDPTVGELKLSKIQKNVKENIQDNISLFSLGMGFDVDYDFLKRLSNENHGIAQRIYGNQDTSSQLKKFYNQVSTPLLRNVQFNYPHTSVTDVTQNNFHNYFGGSEIVVAGKFDPAKLDQIESVITATSANTQLVLETLAQMDDLQDFLSKDKHADPDFTRKLWAYLTINQLLAERSLAPTAAAKRRITRSILQMSLDHHIVTPLTSLVIENEAGDERMLADAPPQDPSCCSGALYYGSKVVPDSTPSWANPSPTPVISMLAQGSQVLESTPPPHVMRVEND
- Semi-quantitative analysis of proteins binding to different plaque particles: Tau [1]: 14
- Semi-quantitative analysis of proteins binding to different plaque particles: Abeta-42 [2]: 9
- Semi-quantitative analysis of proteins binding to different plaque particles: Synuclein [3]: 13
- Semi-quantitative analysis of proteins binding to different plaque particles: Chl small [4]: 12
- Semi-quantitative analysis of proteins binding to different plaque particles: Chl Large [5]: 10

B3: Ig mu chain C region (protein)
chain: GSASAPTLFPLVSCENSPSDTSSVAVGCLAQDFLPDSITFSWKYKNNSDISSTRGFPSVLRGGKYAATSQVLLPSKDVMQGTDEHVVCKVQHPNGNKEKNVPLPVIAELPPKVSVFVPPRDGFFGNPRKSKLICQATGFSPRQIQVSWLREGKQVGSGVTTDQVQAEAKESGPTTYKVTSTLTIKESDWLGQSMFTCRVDHRGLTFQQNASSMCVPDQDTAIRVFAIPPSFASIFLTKSTKLTCLVTDLTTYDSVTISWTRQNGEAVKTHTNISESHPNATFSAVGEASICEDDWNSGERFTCTVTHTDLPSPLKQTISRPKGVALHRPDVYLLPPAREQLNLRESATITCLVTGFSPADVFVQWMQRGQPLSPEKYVTSAPMPEPQAPGRYFAHSILTVSEEEWNTGETYTCVVAHEALPNRVTERTVDKSTGKPTLYNVSLVMSDTAGTCY
- Semi-quantitative analysis of proteins binding to different plaque particles: Tau [1]: 10
- Semi-quantitative analysis of proteins binding to different plaque particles: Abeta-42 [2]: 5
- Semi-quantitative analysis of proteins binding to different plaque particles: Synuclein [3]: 8
- Semi-quantitative analysis of proteins binding to different plaque particles: Chl small [4]: 10
- Semi-quantitative analysis of proteins binding to different plaque particles: Chl Large [5]: 10

B4: Ig alpha-2 chain C region (protein)
chain: ASPTSPKVFPLSLDSTPQDGNVVVACLVQGFFPQEPLSVTWSESGQNVTARNFPPSQDASGDLYTTSSQLTLPATQCPDGKSVTCHVKHYTNSSQDVTVPCRVPPPPPCCHPRLSLHRPALEDLLLGSEANLTCTLTGLRDASGATFTWTPSSGKSAVQGPPERDLCGCYSVSSVLPGCAQPWNHGETFTCTAAHPELKTPLTANITKSGNTFRPEVHLLPPPSEELALNELVTLTCLARGFSPKDVLVRWLQGSQELPREKYLTWASRQEPSQGTTTYAVTSILRVAAEDWKKGETFSCMVGHEALPLAFTQKTIDRMAGKPTHINVSVVMAEADGTCY
- Semi-quantitative analysis of proteins binding to different plaque particles: Tau [1]: 10
- Semi-quantitative analysis of proteins binding to different plaque particles: Abeta-42 [2]: 7
- Semi-quantitative analysis of proteins binding to different plaque particles: Synuclein [3]: 10
- Semi-quantitative analysis of proteins binding to different plaque particles: Chl small [4]: 6
- Semi-quantitative analysis of proteins binding to different plaque particles: Chl Large [5]: 9

B5: Vitamin D-binding protein (protein)
chain: LERGRDYEKNKVCKEFSHLGKEDFTSLSLVLYSRKFPSGTFEQVSQLVKEVVSLTEACCAEGADPDCYDTRTSALSAKSCESNSPFPVHPGTAECCTKEGLERKLCMAALKHQPQEFPTYVEPTNDEICEAFRKDPKEYANQFMWEYSTNYGQAPLSLLVSYTKSYLSMVGSCCTSASPTVCFLKERLQLKHLSLLTTLSNRVCSQYAAYGEKKSRLSNLIKLAQKVPTADLEDVLPLAEDITNILSKCCESASEDCMAKELPEHTVKLCDNLSTKNSKFEDCCQEKTAMDVFVCTYFMPAAQLPELPDVELPTNKDVCDPGNTKVMDKYTFELSRRTHLPEVFLSKVLEPTLKSLGECCDVEDSTTCFNAKGPLLKKELSSFIDKGQELCADYSENTFTEYKKKLAERLKAKLPDATPTELAKLVNKHSDFASNCCSINSPPLYCDSEIDAELKNIL
- Semi-quantitative analysis of proteins binding to different plaque particles: Tau [1]: 19
- Semi-quantitative analysis of proteins binding to different plaque particles: Abeta-42 [2]: 12
- Semi-quantitative analysis of proteins binding to different plaque particles: Synuclein [3]: 17
- Semi-quantitative analysis of proteins binding to different plaque particles: Chl small [4]: 18
- Semi-quantitative analysis of proteins binding to different plaque particles: Chl Large [5]: 21

B6: Cluster of Ig mu chain C region (protein, UniProt P01871 1-474, looked up)
Immunoglobulin heavy constant …: GSASAPTLFPLVSCENSPSDTSSVAVGCLAQDFLPDSITFSWKYKNNSDISSTRGFPSVLRGGKYAATSQVLLPSKDVMQGTDEHVVCKVQHPNGNKEKNVPLPVIAELPPKVSVFVPPRDGFFGNPRKSKLICQATGFSPRQIQVSWLREGKQVGSGVTTDQVQAEAKESGPTTYKVTSTLTIKESDWLGQSMFTCRVDHRGLTFQQNASSMCVPDQDTAIRVFAIPPSFASIFLTKSTKLTCLVTDLTTYDSVTISWTRQNGEAVKTHTNISESHPNATFSAVGEASICEDDWNSGERFTCTVTHTDLPSPLKQTISRPKGVALHRPDVYLLPPAREQLNLRESATITCLVTGFSPADVFVQWMQRGQPLSPEKYVTSAPMPEPQAPGRYFAHSILTVSEEEWNTGETYTCVVAHEALPNRVTERTVDKSTEGEVSADEEGFENLWATASTFIVLFLLSLFYSTTVTLFKVK
- Semi-quantitative analysis of proteins binding to different plaque particles: Tau [1]: 11
- Semi-quantitative analysis of proteins binding to different plaque particles: Abeta-42 [2]: 5
- Semi-quantitative analysis of proteins binding to different plaque particles: Synuclein [3]: 9
- Semi-quantitative analysis of proteins binding to different plaque particles: Chl small [4]: 10
- Semi-quantitative analysis of proteins binding to different plaque particles: Chl Large [5]: 10
